Assay results as given in patent US20050070001A1, “Xylosyltransferase and isoforms thereof” (priority 1999, published 2005).

Target: T1, XT-II (Homo sapiens, UniProt Q9H1B5, R305T)
T1 construct: polyhistidine leader of vector pcDNA4/HisMax-TOPO (own knowledge of the vector); made in house; host or cells: CHO-K1, transient transfection with pCG226-XT-II; medium treated with anti-Xpress antibody and protein G agarose beads
T1 sequence (Q9H1B5 46-865 R305T): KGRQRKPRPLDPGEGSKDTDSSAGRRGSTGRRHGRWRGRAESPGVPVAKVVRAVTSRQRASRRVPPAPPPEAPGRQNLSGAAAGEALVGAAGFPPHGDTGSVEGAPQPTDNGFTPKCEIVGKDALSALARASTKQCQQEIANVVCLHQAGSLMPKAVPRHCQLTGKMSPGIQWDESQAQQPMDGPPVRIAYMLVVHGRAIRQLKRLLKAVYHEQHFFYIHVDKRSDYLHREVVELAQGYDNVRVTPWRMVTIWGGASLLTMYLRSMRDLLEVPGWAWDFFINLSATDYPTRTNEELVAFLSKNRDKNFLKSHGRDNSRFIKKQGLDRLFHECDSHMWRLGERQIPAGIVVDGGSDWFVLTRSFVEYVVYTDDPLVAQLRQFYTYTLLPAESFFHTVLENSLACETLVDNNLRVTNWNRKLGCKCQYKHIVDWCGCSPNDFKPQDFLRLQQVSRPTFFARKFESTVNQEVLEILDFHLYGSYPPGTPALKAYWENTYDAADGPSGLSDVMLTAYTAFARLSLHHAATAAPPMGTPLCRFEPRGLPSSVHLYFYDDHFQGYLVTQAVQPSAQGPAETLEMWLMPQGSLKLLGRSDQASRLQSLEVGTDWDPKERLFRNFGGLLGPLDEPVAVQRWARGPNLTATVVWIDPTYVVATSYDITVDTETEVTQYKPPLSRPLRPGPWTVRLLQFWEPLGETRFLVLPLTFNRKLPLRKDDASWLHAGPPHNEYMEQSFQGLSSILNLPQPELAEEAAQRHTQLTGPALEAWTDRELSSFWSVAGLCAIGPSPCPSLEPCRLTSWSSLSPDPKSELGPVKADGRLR
Assay: XT activity assay of XT-II fused to aminoterminal peptide tag, expressed in CHO-K1 cells
Format: biochemical
Source text: The degenerate primers PFF-sense and Lysc-inv1 which were designed upon the amino acid sequence of proteolytic cleaved peptides of human XT-I were used in a PCR reaction with first strand cDNA of placenta poly(A)^+ mRNA as template. […] To clone the complete coding sequence of the novel cDNA, the RACE strategy was employed. The cDNA finally obtained was 3608 bp (FIG. 8A) and contained a single open reading frame encoding a protein of 865 amino acids with a molecular mass of 97.000. The 3′-untranslated region is 850 bp and a 5′-untranslated region of 149 bp was identified with an in-frame stop codon upstream of the ATG codon. […] No detectable XT activity was recovered by the affinity purification from a control transfection sample. The substrate specificity of the recombinant XT-I was similar to that of the XT-I isolated from human body fluids and cell culture supernatants.
Determination of XT activity. Determination of XT activity is based on the incorporation of [14C]-D-xylose into the recombinant bikunin according to a previously described method (Brinkmann et al., 1997, J. Biol. Chem., 272, 11171-11175). For analysis of the substrate specificity of the recombinant xylosyltransferases synthetic peptides containing the XT recognition sequence were used as acceptor. […] Incorporated radioactivity was determined by liquid scintillation counting. […]

B1: XT-II: human xylosyltransferase isoform 2, 865 amino acids, FIG. 8B (protein, UniProt Q9H1B5 1-865, looked up)
chain: MVASARVQKLVRRYKLAIATALAILLLQGLVVWSFSGLEEDEAGEKGRQRKPRPLDPGEGSKDTDSSAGRRGSTGRRHGRWRGRAESPGVPVAKVVRAVTSRQRASRRVPPAPPPEAPGRQNLSGAAAGEALVGAAGFPPHGDTGSVEGAPQPTDNGFTPKCEIVGKDALSALARASTKQCQQEIANVVCLHQAGSLMPKAVPRHCQLTGKMSPGIQWDESQAQQPMDGPPVRIAYMLVVHGRAIRQLKRLLKAVYHEQHFFYIHVDKRSDYLHREVVELAQGYDNVRVTPWRMVTIWGGASLLRMYLRSMRDLLEVPGWAWDFFINLSATDYPTRTNEELVAFLSKNRDKNFLKSHGRDNSRFIKKQGLDRLFHECDSHMWRLGERQIPAGIVVDGGSDWFVLTRSFVEYVVYTDDPLVAQLRQFYTYTLLPAESFFHTVLENSLACETLVDNNLRVTNWNRKLGCKCQYKHIVDWCGCSPNDFKPQDFLRLQQVSRPTFFARKFESTVNQEVLEILDFHLYGSYPPGTPALKAYWENTYDAADGPSGLSDVMLTAYTAFARLSLHHAATAAPPMGTPLCRFEPRGLPSSVHLYFYDDHFQGYLVTQAVQPSAQGPAETLEMWLMPQGSLKLLGRSDQASRLQSLEVGTDWDPKERLFRNFGGLLGPLDEPVAVQRWARGPNLTATVVWIDPTYVVATSYDITVDTETEVTQYKPPLSRPLRPGPWTVRLLQFWEPLGETRFLVLPLTFNRKLPLRKDDASWLHAGPPHNEYMEQSFQGLSSILNLPQPELAEEAAQRHTQLTGPALEAWTDRELSSFWSVAGLCAIGPSPCPSLEPCRLTSWSSLSPDPKSELGPVKADGRLR
modifications: full-length
enzymatic transfer of xylose to the acceptor peptides: no enzymatic transfer of xylose
